B1: TPR t1 (parent)
chain: GACCAAUCUGCCCUCAGAGCUCGAGAACAUCUUCGGAUGCAGAGGAGGCAGGCUUCGGUGGCGCGAUAGCGCCAACGUCCUCAACCUCCAAUGCAUCCCACCACAUGAUGAUGCCUGAAGAGCCUUGGUUUUUUG

Variants of: B1
Experiment: polymerase ribozyme fitness, log enrichment relative to wild type (log ratio); higher = more active; in vitro selection for triplet polymerase activity
Procedure, shortened: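 The heterodimeric triplet polymerase ribozyme's subunits were each mutagenized into PCR-built libraries and transcribed. Every library was selected once, in triplicate, by annealing with a biotinylated primer, the partner subunit and triplets, incubating frozen at −7 °C, gel-excising extended constructs, capturing on streptavidin beads and running RT-PCR. Input and output libraries were Illumina-sequenced, with genotypes kept only at ≥10 input reads and ≥1 read per output. Fitness, from inverse-variance-weighted replicate averages, is the base-2 logarithm of genotype enrichment over wild-type enrichment.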

First: GACCAAUCUGCCCUCAGAGCUCGAGAGCAUCUUCGGAUGCAGAGGAGGCAGGCUUCGGUGGCGCGAUAGCGCCAACGUCCUCAACCUCCAAUGCAUCCCACCACAUGAUAAUGCCUGAAGAGCCUUGGUUUUUUG
Second: GACCAAUCUGCCCUCAGAGCUCGAGAUCAUCUUCGGAUGCAGAGGAGGCAGGAUUCGGUGGCGCGAUAGCUCCAACGUCCUCAACCUACAAUGCAUCCCACCACAUGAUGAUGCCUCAAGAGCCUUGGUUUUUUG
The “polymerase ribozyme fitness (log ratio)” value of the first is higher: -1.89 for the first, -6.86 for the second.

GACCAAUCUGCCCUCAGAGCUCGAGAUCAUCUUCGGAUGCAGAGGAGGCAGGCUUCGGUGGCGCGAUGGCGCCAACGUCCUCAACCUCCAAUGCAUCCCACCACAUGAUGAUGCCUGAAGAGCCUUGGUUUUUUG and GACCAAUCUGCCCUCAGAGCUCGAGAUCAUCUUCGGAUGGAGAGUAGGCAGGCUUCGGUGGCGCGAUAGCGCCAACGUCCUCAACCUCCAAUGCAUCCCACCACAUGAUGAUGCCUGAUGAGCCUUGGUUUUUUG are within 0.2 log units of each other in “polymerase ribozyme fitness (log ratio)” value: -5.61 for the first, -5.54 for the second.

First: GACCAAUCUGCCCUCAGAGCUCGAGAUCAUCUUCGGAUGCAGAGGAGGCAGGUUUCGGUGGCGCGAUAGCGCCAACGUCCUCAACCUCCAAUGCAUCCCACCACAUGAUGAUGCCUGAAGAGCCUUGGUUUUUUG
Second: GACCAAUCUGCCCUCAGAGCUCGAGAUCAUCUUCGGAUGCAGAGGAGGCAGGAUUCGGUGGCGCGAUAGCGCCAACGUCCUCAACCUCCAAUGCAUCCCACCACAUGAUGAUGCCUGAAGAGCCUUGGUUUUUUG
The “polymerase ribozyme fitness (log ratio)” value of the first is higher: -2.7 for the first, -3.49 for the second.

First: GACCAAUCUGCCCUCAGAGCUCGAGAUCAUCUUCGGAUGCAGAGGAGGCAGGGUUCGGUGGCGCGAUAGCGCCAACGUCCUCAACCUCCAAUGCAUCCCACCACAUGAUGAUGCCUGAAGAGCCUUGGUUUUUUG
Second: GACCAAUCUGCCCUCAGAGCUCGAGAGCAUCUUCGGAAGCAGAGGAGGCAGGCUUCGGUGGCGCGAUAGCGCUAACGUCCUCCACCUCCAAUGCAUCCCACCACAUGAUGAUGCCUGAAGAGCCUUGGUUUUUUG
The “polymerase ribozyme fitness (log ratio)” value of the first is higher: -2.71 for the first, -3.53 for the second.

First: GACCAAUCUGCCCUCAGAGCUCGAGAUCAUCUUCGGAUGCAGAGGAGGCAGGCUUCGGUGGCGCGAUAGCGCCUACGUCCUCAACCACCAAUGCAUCCCACCACAUGAUGAUGCCUGAAGAGCCUUGGUUUUUUG
Second: GACCAAUCUGCCCUCAGAGCUCGAGAGCAUCAUCGUAUGCAGAAGAGGCAGGCUUCGGUGGCCCGAUAGCGCCAAAGUCCUCAACCUCCAAUGCAUCCCACCACAUGAUGAUGCCUGAAGAGCCUUGGUUUUUUG
The “polymerase ribozyme fitness (log ratio)” value of the first is higher: -2.97 for the first, -7.06 for the second.

Compared with GACCAAUCUGCCCUCAGAGCUCGAGAGCAUCUUCGGAUGCAGAGGAGGCAGGCUUCGGUGGCGCGAUAGCACCAACGUCCUCAACCUCCAAUGCAUCCCACCACAUGAUGAUGCCUGAAGAGCCUUGGUUUUUUG, GACCAAUCUGCCCUCAGAGCUCGAGAUCAUCUUCGGAUGGAGAGGAGGCAGGCUUCGGUGGCGCGAUAGCGCCAACGUCCUGAACCUCCAAUGCAUCCCACCACAUGAUGAUGCCUGAAGAGCCUUGGUUUUUUG is lower in “polymerase ribozyme fitness (log ratio)” value: -1.68 for the first, -5.92 for the second.

Compared with GACCAAUCUGCCCUCAGAGCUCGAGAUCAUCUUCGGAUGCAGAGGAGGCAGGCUUGGGUGGCGCGAUAGCGCCAACGUCCUCAACCUCCAAUGCAUCCCACCACAUGAUGAUGCCUUAAGAGCGUUGGUUUUUUG, GACCAAUCUGCCCUCAGAGCUCGAGAUCAUCUUCGGAUGCAGAGGGGGCAGGCUUCGGUGGCGCGAUAGCGUCAACGUCCUCAACCUCCAAUGCAUCCCACCACAUGAUGAUGCCUGAAAAGCCUUGGUUUUUUG is higher in “polymerase ribozyme fitness (log ratio)” value: -4.92 for the first, -2.7 for the second.

Going from GACCAAUCUGCCCUCAGAGCUCGAGAUCGUCUUCGGAUGCAGAGGAGGCAGGCUUCGGUGGCGCGAUAGCGCCAACGUCCUCAACCUCCAAUGCAUCCCACCACAUGAUGAUGCCUGAAGAACCUUGGUUUUUUG to GACCAAUCUGCCCUCAGAGCUCGAGAUCAUCUUCGGAUGUAGAGGAGGCAGGCUUCGGUGGCGCGAUAGCGCCAAGGUCCUCAACCUCCAAUGCAUCCCACCACAUGAUGAUGCCUGAAGAGCCUUGGUUUUUUG, the “polymerase ribozyme fitness (log ratio)” value falls from -3.63 to -4.54.

Compared with GACCAAUCUGCCCUCAGAGCUCGAGAGCAUCUUCGGAAGCAGAGGAGGCAGGCUUCGGUGGCGCGAUAGCGCCAACGUCCUCCACCUCCAAUGCAUCCCACCACAUGAUGAUGCCUGAAGAGCCUUGGUUUUUUG, GACCAAUCUGCCCUCAGAGCUCGAGAUCAUCUUCGGCUGCAGAGGAGGCAGGCUUCGGCGGCGCGAUAGCGCCAACGUCCUCAACCUCCAAUGCAUCCCACCACAUGAUGAUGCCUGAAGAGCCUUGGUUUUUUG is lower in “polymerase ribozyme fitness (log ratio)” value: -2.58 for the first, -3.36 for the second.

Going from GACCAAUCUGCCCUCAGAGCUCGAGAUCAUCUUCGGAUGCAGAGGAGGGAAGCUUCGGUGGCGCGAUAGCGCCAACGUCAUCAACCUCCAAUGCAUCCUACCACAUGAUGAUGCCUGAACAGCCUUGGUAUUUUG to GACCAAUCUGCCCUCAGAGCUCGAGAUCAUCUUCGGAUGCAGAGGAGGCAGGCUUCGGUGGCGCGAUAGCGCCAACGUCCUCUACCUCCAAUGCAUCCCACCACAUGAUGAUGCCUGAAGAGCCUUGGUUUUUUG, the “polymerase ribozyme fitness (log ratio)” value rises from -8.17 to -3.7.

With GACCAAUCUGCCCUCAGAGCUCGAGAUCGUCUUCGGAUGCAGAGGAGGCAGGCUUCGGUGGCGCGAUAGCGACAACGUCCUCAACCUCCAAUGCAUCCCACCACAUGAUGAUGCCUGAAGAGCCUUGGUUUUUUG the “polymerase ribozyme fitness (log ratio)” value was -2.36.
